Substitutions are numbered along the chain they refer to. In names and notes the source's numbering stands.
B1: StayGold (CU17S/V168A mutant) (other)
chain: MASTPFKFQLKGTINGKSFTVEGEGEGNSHEGSHKGKYVCTSGKLPMSWAALGTSFGYGMKYYTKYPSGLKNWFHEVMPEGFTYDRHIQYKGDGSIHAKHQHFMKNGTYHNIVEFTGQDFKENSPVLTGDMNVSLPNEVQHIPRDDGVECPVTLLYPLLSDKSKCVEAHQNTICKPLHNQPAPDVPYHWIRKQYTQSKDDTEERDHICQSETLEAHL
notes: Made in E. coli JM109 (DE3) and purified on Ni-NTA; also called StayGold (dimer); not shown: N-terminal histidine tag from the pRSETB vector (purified on Ni-NTA)
B2: StayGold Y187A (other)
chain: B1 chain with Y187A
notes: not shown: histidine tag implied by Ni-NTA purification
B3: StayGold L155T (other)
chain: B1 chain with L155T
notes: as for B2

Assays:
[1] = biological target: the molecule itself; test: pseudo-native PAGE, self-association (homodimer), FIG. 17
[2] = biological target: the molecule itself; test: pseudo-native PAGE (10% acrylamide, 0.1% SDS, no heat treatment), self-association
Procedure: After purification of the proteins with use of Ni-NTA, pseudo-native PAGE was carried out. The separation gel contained 10% acrylamide and 0.1% SDS. The sample buffer contained 2% SDS and 100 mM DTT. No heat treatment was carried out.

| Protein | binding result [1] | binding result [2] |
| --- | --- | --- |
| B1 | binds |  |
| B2 |  | no binding |
| B3 |  | no binding |

Source: US20240209039A1 (RIKEN, published 2024)
